Values joined by “and” are separate entries in the source; they are usually repeats but may differ in a detail not shown here. Identical values can stand only once. Each block holds one binder with its values, some of them ahead of it.
Assays:
[1] = molecular target: T1, human OX40 on cells (human, UniProt P43489 29-277); experiment: cell-based or functional assay
T1 sequence (looked up): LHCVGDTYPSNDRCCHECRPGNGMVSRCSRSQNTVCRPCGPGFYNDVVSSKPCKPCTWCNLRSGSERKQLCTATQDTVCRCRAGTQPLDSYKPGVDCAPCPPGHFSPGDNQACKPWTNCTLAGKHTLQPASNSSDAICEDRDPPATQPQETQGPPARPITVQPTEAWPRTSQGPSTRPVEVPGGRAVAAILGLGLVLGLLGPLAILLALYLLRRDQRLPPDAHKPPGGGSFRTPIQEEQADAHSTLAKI

[2] = molecular target: T2, human OX40 protein (human, UniProt P43489 29-214, limits assumed); experiment: ELISA as in Example 3, human OX40 protein coated
T2 construct: also called human OX antigen protein
T2 sequence (looked up): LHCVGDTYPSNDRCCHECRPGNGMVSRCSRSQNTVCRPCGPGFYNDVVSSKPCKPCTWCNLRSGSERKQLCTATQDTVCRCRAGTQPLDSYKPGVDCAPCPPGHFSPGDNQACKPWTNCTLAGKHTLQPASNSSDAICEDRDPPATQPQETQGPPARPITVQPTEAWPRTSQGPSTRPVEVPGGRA
Method: (§1) The next day, it was washed three times with 300 μL PBST (Tween 20: 0.5‰), then blocked with 5% BSA/PBS at 100 μL/well for 2 hours, and shaken at room temperature. After washing 3 times with 300 μL PBST, the gradient dilutions of samples were prepared with PBS, which were added into the 96-well plate at 100 μL/well and shaken at room temperature for 1 hour, and washed 3 times with 300 μL PBST. The secondary antibody goat anti-human IgG HRP solution was prepared, which was added into the 96-well plate at 100 μL/well, and shaken at room temperature for 1 hour. After washing 4 times with 300 μL PBST, TMB was added at 100 μL/well and developed for 20 min. 0.6N H₂SO4 was added at 100 μL/well to stop the development, and OD450 nm was measured.
The in vitro binding assay of humanized antibodies and human OX antigen protein was carried out as described in Example 3.

[3] = molecular target: T1, human OX40 on cells; experiment: FACS on CHO-hOX40 cells
Method: The OX40 antibody gradient was created with PBS, and a stock solution of 10× final concentration was prepared. CHO-hOX40 cells were collected, washed once with PBS, counted, and diluted to a cell suspension of 2×10⁶ cells/ml. 10 μl of OX40 antibody stock solutions were added into 100 μl of cell suspension, and incubated at 4° C. in the dark for 30 min. After washing twice with PBS, a secondary antibody was added and an incubation was carried out at 4° C. for 30 min in the dark. After washing once with PBS, the cells were suspended in 400 μl FACS buffer and measured on the instrument.

[4] = molecular target: T3, mouse OX40 on CHO cells (mouse, UniProt P47741 20-272); experiment: FACS on CHO cells expressing mouse OX40
T3 construct: whole, on cells; also called CHO-mOX40
T3 sequence (looked up): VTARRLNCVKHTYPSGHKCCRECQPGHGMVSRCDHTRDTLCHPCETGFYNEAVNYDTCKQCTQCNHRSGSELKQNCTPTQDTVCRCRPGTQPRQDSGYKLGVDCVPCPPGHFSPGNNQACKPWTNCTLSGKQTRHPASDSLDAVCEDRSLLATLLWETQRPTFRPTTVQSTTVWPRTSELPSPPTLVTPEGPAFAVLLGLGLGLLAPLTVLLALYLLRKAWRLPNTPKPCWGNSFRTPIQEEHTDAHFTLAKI

[5] = molecular target: T2, human OX40 protein; experiment: ELISA, protein coated at 1 µg/mL, goat anti-human IgG HRP
Method: as §1

B4: MT01-C1 (antibody, human IgG1, kappa)
heavy: not shown
light: DIQMTQSPSSVSASVGDRVTITCRASQDISNYLSWYQQKPGGAVKLLIYYTSRLHSGVPSRFSGSGSGTDYTLTISSLQPEDFATYFCQQGITLPWTFGQGTKVEIKRTVAAPSVFIFPPSDEQLKSGTASVVCLLNNFYPREAKVQWKVDNALQSGNSQESVTEQDSKDSTYSLSSTLTLSKADYEKHKVYACEVTHQGLSSPVTKSFNRGEC
notes: also called humanized monoclonal antibody MT01-C1
EC50 of activation on a cell line transfected stably by Jurkat-OX40-NFκB-luciferase reporter [1]: 0.028 µg/mL
EC50 [2]: 0.345 µg/mL

B5: MT01-C1(G2) (antibody, human IgG2, kappa)
heavy: EVQLVQSGAEVKKPGESLKISCKASGYTFTSYVMHWLRQMPGKGLEWMGYINPYNDGTKYNEKFKGQVTISSDKSISTAYLQWSSLKASDTAMYYCANYYGSKFAMDYWGQGTMVTVSSASTKGPSVFPLAPCSRSTSESTAALGCLVKDYFPEPVTVSWNSGALTSGVHTFPAVLQSSGLYSLSSVVTVPSSNFGTQTYTCNVDHKPSNTKVDKTVERKCCVECPPCPAPPVAGPSVFLFPPKPKDTLMISRTPEVTCVVVDVSHEDPEVQFNWYVDGVEVHNAKTKPREEQFNSTFRVVSVLTVVHQDWLNGKEYKCKVSNKGLPAPIEKTISKTKGQPREPQVYTLPPSREEMTKNQVSLTCLVKGFYPSDIAVEWESNGQPENNYKTTPPMLDSDGSFFLYSKLTVDKSRWQQGNVFSCSVMHEALHNHYTQKSLSLSPGK
light: DIQMTQSPSSVSASVGDRVTITCRASQDISNYLSWYQQKPGGAVKLLIYYTSRLHSGVPSRFSGSGSGTDYTLTISSLQPEDFATYFCQQGITLPWTFGQGTKVEIKRTVAAPSVFIFPPSDEQLKSGTASVVCLLNNFYPREAKVQWKVDNALQSGNSQESVTEQDSKDSTYSLSSTLTLSKADYEKHKVYACEVTHQGLSSPVTKSFNRGEC
EC50 of activation on a cell line transfected stably by Jurkat-OX40-NFκB-luciferase reporter [1]: 0.0434 µg/mL
EC50 [2]: 0.39 µg/mL

B8: MT01-L1 (antibody, human IgG1, kappa)
heavy: not shown
light: DIQMTQTTSSLSASLGDRVTISCRASQDISNYLSWYQRKPDGAVKLLIYYTSRLHSGVPSRFSGSGSGADYSLTISNLEQEDIATYFCQQGITLPWTFGGGTKLEIKRTVAAPSVFIFPPSDEQLKSGTASVVCLLNNFYPREAKVQWKVDNALQSGNSQESVTEQDSKDSTYSLSSTLTLSKADYEKHKVYACEVTHQGLSSPVTKSFNRGEC
notes: also called human-mouse chimeric monoclonal antibody MT01-L1
EC50 for activation of the NFκB-luciferase reporter gene [1]: 0.0391 µg/mL and 0.0574 µg/mL
IC50 of inhibition of the OX40L-induced activation of NFkB signaling pathway in Jurkat cells [1]: 0.686 µg/mL
EC50 [3]: 1.22 µg/mL
binding result [4]: no binding
EC50 [5]: 0.291 µg/mL

B9: MT01-L1(G2) (antibody, human IgG2, kappa)
heavy: EVQLQQSGPELVKPGASVKMSCKASGYTFTSYVMHWLKQKPGQGLEWIGYINPYNDGTKYNEKFKGKAKLTSDKSSSTAYMELSSLTSEDSAVYYCANYYGSKFAMDYWGQGTSVTVSSASTKGPSVFPLAPCSRSTSESTAALGCLVKDYFPEPVTVSWNSGALTSGVHTFPAVLQSSGLYSLSSVVTVPSSNFGTQTYTCNVDHKPSNTKVDKTVERKCCVECPPCPAPPVAGPSVFLFPPKPKDTLMISRTPEVTCVVVDVSHEDPEVQFNWYVDGVEVHNAKTKPREEQFNSTFRVVSVLTVVHQDWLNGKEYKCKVSNKGLPAPIEKTISKTKGQPREPQVYTLPPSREEMTKNQVSLTCLVKGFYPSDIAVEWESNGQPENNYKTTPPMLDSDGSFFLYSKLTVDKSRWQQGNVFSCSVMHEALHNHYTQKSLSLSPGK
light: DIQMTQTTSSLSASLGDRVTISCRASQDISNYLSWYQRKPDGAVKLLIYYTSRLHSGVPSRFSGSGSGADYSLTISNLEQEDIATYFCQQGITLPWTFGGGTKLEIKRTVAAPSVFIFPPSDEQLKSGTASVVCLLNNFYPREAKVQWKVDNALQSGNSQESVTEQDSKDSTYSLSSTLTLSKADYEKHKVYACEVTHQGLSSPVTKSFNRGEC
EC50 for activation of the NFκB-luciferase reporter gene [1]: 0.0149 µg/mL

Next, values leading:

EC50 for activation of the NFκB-luciferase reporter gene [1]: 0.0645 µg/mL
B1: MT01-L1(M1) (antibody, human IgG1, kappa, V domains shown)
VH: EVQLQQSGPELVKPGASVKMSCKASGYTFTSYVMHWLKQKPGQGLEWIGYINPYNDATKYNEKFKGKAKLTSDKSSSTAYMELSSLTSEDSAVYYCANYYGSKFAMDYWGQGTSVTVSS
VL: DIQMTQTTSSLSASLGDRVTISCRASQDISNYLSWYQRKPDGAVKLLIYYTSRLHSGVPSRFSGSGSGADYSLTISNLEQEDIATYFCQQGITLPWTFGGGTKLEIKR

EC50 for activation of the NFκB-luciferase reporter gene [1]: 0.06 µg/mL
B2: MT01-L1(M2) (antibody, human IgG1, kappa, V domains shown)
VH: EVQLQQSGPELVKPGASVKMSCKASGYTFTSYVMHWLKQKPGQGLEWIGYINPYNDGTKYNEKFKGKAKLTSDKSSSTAYMELSSLTSEDSAVYYCANYYGSKFAMDYWGQGTSVTVSS
VL: DIQMTQTTSSLSASLGDRVTISCRASQDISNYLSWYQRKPDGAVKLLIYYTSRLHSGVPSRFSGSGSGADYSLTISNLEQEDIATYFCQQGITLPFTFGGGTKLEIKR

EC50 for activation of the NFκB-luciferase reporter gene [1]: 0.128 µg/mL
B3: MT01-L1(M1/M2) (antibody, human IgG1, kappa, V domains shown)
VH: EVQLQQSGPELVKPGASVKMSCKASGYTFTSYVMHWLKQKPGQGLEWIGYINPYNDATKYNEKFKGKAKLTSDKSSSTAYMELSSLTSEDSAVYYCANYYGSKFAMDYWGQGTSVTVSS
VL: DIQMTQTTSSLSASLGDRVTISCRASQDISNYLSWYQRKPDGAVKLLIYYTSRLHSGVPSRFSGSGSGADYSLTISNLEQEDIATYFCQQGITLPFTFGGGTKLEIKR

EC50 for activation of the NFκB-luciferase reporter gene [1]: 0.0841 µg/mL
IC50 of inhibition of the OX40L-induced activation of NFkB signaling pathway in Jurkat cells [1]: 1.59 µg/mL
EC50 [3]: 2.42 µg/mL
binding result [4]: no binding
EC50 [5]: 0.208 µg/mL
B6: MT01-L2 (antibody, human IgG1, lambda)
heavy: not shown
light: QLVLTQSSSASFSLGASAKLTCTLSSQHSTYIIEWYQQQPLKPPKYVMELKKDGSHSTGEGIPDRFSGSSSGADRYLSISNIQPEDEAIYICGVGNTIKEQFVYVFGGGTKVTVLGQPKANPTVTLFPPSSEELQANKATLVCLISDFYPGAVTVAWKADGSPVKAGVETTKPSKQSNNKYAASSYLSLTPEQWKSHRSYSCQVTHEGSTVEKTVAPTECS
notes: also called human-mouse chimeric monoclonal antibody MT01-L2

EC50 for activation of the NFκB-luciferase reporter gene [1]: 0.118 µg/mL
B7: MT01-L2(G2) (antibody, human IgG2, lambda)
heavy: EVQLVESGGGLVQPKGSLSLSCAASGFTFNTYAMNWVRQAPGKGLEWVARIRSKSNNYATYYADSVKDRFTISRDDSQSMLYLQMTNLKTEDTAMYHCVRSLGRAFVYWGQGTLVTVSSASTKGPSVFPLAPCSRSTSESTAALGCLVKDYFPEPVTVSWNSGALTSGVHTFPAVLQSSGLYSLSSVVTVPSSNFGTQTYTCNVDHKPSNTKVDKTVERKCCVECPPCPAPPVAGPSVFLFPPKPKDTLMISRTPEVTCVVVDVSHEDPEVQFNWYVDGVEVHNAKTKPREEQFNSTFRVVSVLTVVHQDWLNGKEYKCKVSNKGLPAPIEKTISKTKGQPREPQVYTLPPSREEMTKNQVSLTCLVKGFYPSDIAVEWESNGQPENNYKTTPPMLDSDGSFFLYSKLTVDKSRWQQGNVFSCSVMHEALHNHYTQKSLSLSPGK
light: QLVLTQSSSASFSLGASAKLTCTLSSQHSTYIIEWYQQQPLKPPKYVMELKKDGSHSTGEGIPDRFSGSSSGADRYLSISNIQPEDEAIYICGVGNTIKEQFVYVFGGGTKVTVLGQPKANPTVTLFPPSSEELQANKATLVCLISDFYPGAVTVAWKADGSPVKAGVETTKPSKQSNNKYAASSYLSLTPEQWKSHRSYSCQVTHEGSTVEKTVAPTECS
